Assay results: patent publication US20110287512

Experiments:
[1] = system: ZFN7263 linker TPRPPIPKP center linker F2-F3 TGSQKP replaced by TPRPPIPKP (artificial); assay: cell_activity; settings: normalized yeast MEL-1 score
[2] = system: ZFN7263 linker TPLCQRPMKQKP (artificial); assay: cell_activity; settings: yeast, paired with 7264 ZFN
[3] = system: ZFN7263 linker TYPRPLLAKP (artificial); assay: cell_activity; settings: yeast, paired with 7264 ZFN
[4] = system: ZFN7263 linker TQRPQIPPKP (artificial); assay: cell_activity; settings: yeast, paired with 7264 ZFN
[5] = system: ZFN7263 linker TGGGGSQKP center linker F2-F3 TGSQKP replaced by TGGGGSQKP (artificial); assay: cell_activity; settings: normalized yeast MEL-1 score
[6] = system: ZFN7263 linker TPNRCPPTKP (artificial); assay: cell_activity; settings: yeast, paired with 7264 ZFN
[7] = system: ZFN7263 (host) (artificial); assay: cell_activity
[8] = system: ZFP7263 linker TGEGGKP (artificial)
[9] = system: ZFP7263 linker TPLCQRPMKQKP (artificial)
[10] = system: ZFP7263 linker TPRPPIPKP (artificial)
[11] = system: ZFP7263 linker LRQKDERP (artificial)
[12] = system: ZFP7263 (host, center linker TGSQKP) (artificial)
[13] = system: ZFP7263 linker TGGGGSQKP (artificial)
[14] = system: ZFP7263 linker TQRPQIPPKP (artificial)
[15] = system: ZFP7263 linker TPNRCPPTKP (artificial)
[16] = system: ZFP7263 linker TYPRPLLAKP center linker F2-F3 TGSQKP replaced by TYPRPLLAKP (artificial); assay: ELONA; settings: normalized ELISA score
[17] = system: ZFP7263 linker TQRPQIPPKP center linker F2-F3 TGSQKP replaced by TQRPQIPPKP (artificial); assay: ELONA; settings: normalized ELISA score
[18] = system: ZFP7263 (host, center linker TGSQKP) (artificial); assay: ELONA
[19] = system: ZFP7263 linker TPLCQRPMKQKP center linker F2-F3 TGSQKP replaced by TPLCQRPMKQKP (artificial); assay: ELONA; settings: normalized ELISA score
[20] = system: ZFP7263 linker TGGGGSQKP center linker F2-F3 TGSQKP replaced by TGGGGSQKP (artificial); assay: ELONA; settings: normalized ELISA score
[21] = system: ZFP7263 linker LRQKDERP center linker F2-F3 TGSQKP replaced by LRQKDERP (artificial); assay: ELONA; settings: normalized ELISA score
[22] = system: ZFP7263 linker TPNRCPPTKP center linker F2-F3 TGSQKP replaced by TPNRCPPTKP (artificial); assay: ELONA; settings: normalized ELISA score
[23] = system: ZFP7263 linker TGEGGKP center linker F2-F3 TGSQKP replaced by TGEGGKP (artificial); assay: ELONA; settings: normalized ELISA score
[24] = system: ZFP7263 linker TPRPPIPKP center linker F2-F3 TGSQKP replaced by TPRPPIPKP (artificial); assay: ELONA; settings: normalized ELISA score
[25] = system: ZFN7264 linker TGGGGSQKP (artificial); assay: cell_activity; settings: yeast, paired with 7263 ZFN
[26] = system: ZFN7264 linker TGLPKPKP (artificial); assay: cell_activity; settings: yeast, paired with 7263 ZFN
[27] = system: ZFN7264 linker TSRPRPKP (artificial); assay: cell_activity; settings: yeast, paired with 7263 ZFN
[28] = system: ZFN7264 linker 1e (artificial); assay: cell_activity; settings: yeast, paired with 7263 ZFN
[29] = system: ZFN7264 (host, center linker TGSQKP) (synthetic); assay: cell_activity; settings: yeast, partner ZFN7263; host on 0-bp gap = 1.00; host data same as Table 9
[30] = system: ZFP8196 linker TPGLHRPKP (artificial)
[31] = system: ZFP8196 linker LRQKDERP (artificial)
[32] = system: ZFP8196 linker TSSPRSNAKP (artificial)
[33] = system: ZFP8196 linker TGEGGKP (artificial)
[34] = system: ZFP8196 linker TSPRLPAPKP (artificial)
[35] = system: ZFP8196 linker TPDRPISTCKP (artificial)
[36] = system: ZFP8196 linker TCPRPPTRKP (artificial)
[37] = system: ZFP8196 linker TEPRAKPPKP (artificial)
[38] = system: ZFP8196 linker TPSHTPRPKP (artificial)
[39] = system: ZFP8196 linker TVSPAPCRSKP (artificial)
[40] = system: ZFP8196 linker TGYSIPRPKP (artificial)
[41] = system: ZFP8196 linker TGGGGSQKP (artificial)
[42] = system: ZFP8196 linker TPDAPKPKP (artificial)
[43] = system: ZFP8196 linker 1f center linker F2-F3 TGEKP replaced by TYPRPIAAKP (artificial); assay: ELONA; settings: normalized ELISA score
[44] = system: ZFP8196 (host, center linker TGEKP) (artificial); assay: ELONA; settings: normalized ELISA score
[45] = system: ZFP8196 linker 1c center linker F2-F3 TGEKP replaced by THPRAPIPKP (artificial); assay: ELONA; settings: normalized ELISA score
[46] = system: ZFP8196 linker 1d center linker F2-F3 TGEKP replaced by TPNRRPAPKP (artificial); assay: ELONA; settings: normalized ELISA score

## ACTCTGTGGAAG (double strand) [7263 yeast half-site 0-bp gap]
[1]
  activity: 0.04
[2]
  activity (normalized MEL-1): 0.04
[3]
  activity (normalized MEL-1): 0.05
[4]
  activity (normalized MEL-1): 0.04
[5]
  activity: 0.11
[6]
  activity (normalized MEL-1): 0.05
[7]; yeast MEL-1 score, with invariant 7264 ZFN partner (reference)
  activity: 1

## TTAGCCACTCTGATGGAAGTGTATC (double strand) [7263 target gap A]
[8]
  binding signal (normalized ELISA): 0.02
[9]
  binding signal (normalized ELISA): 1.82
[10]
  binding signal (normalized ELISA): 0.97
[11]
  binding signal (normalized ELISA): 0.03
[12]
  binding signal (normalized ELISA): 0.01
[13]
  binding signal (normalized ELISA): 0.06
[14]
  binding signal (normalized ELISA): 1.66
[15]
  binding signal (normalized ELISA): 1.68
[16]
  binding signal: 1.95

## TTAGCCACTCTGACTGGAAGTGTATC (double strand) [7263 target gap AC]
[8]
  binding signal (normalized ELISA): 0.01
[9]
  binding signal (normalized ELISA): 0.08
[10]
  binding signal (normalized ELISA): 0.02
[11]
  binding signal (normalized ELISA): 0.01
[13]
  binding signal (normalized ELISA): 0.01
[15]
  binding signal (normalized ELISA): 0.03
[17]
  binding signal: 0.03
[18]; normalized ELISA score
  binding signal: 0.01
[16]
  binding signal: 0.03

## TTAGCCACTCTGTGGAAGTGTATC (double strand) [7263 target 0-bp gap]
[17]
  binding signal: 0.15
[19]
  binding signal: 0.28
[20]
  binding signal: 0.51
[21]
  binding signal: 0.25
[22]
  binding signal: 0.31
[23]
  binding signal: 1.3
[24]
  binding signal: 0.14
[18]; ELISA normalized to host on 0-bp gap target (reference)
  binding signal: 1
[16]
  binding signal: 0.29

## TTAGCCACTCTGCTGGAAGTGTATC (double strand) [7263 target gap C]
[8]
  binding signal (normalized ELISA): 0.02
[9]
  binding signal (normalized ELISA): 1.28
[10]
  binding signal (normalized ELISA): 0.67
[11]
  binding signal (normalized ELISA): 0.02
[12]
  binding signal (normalized ELISA): 0.01
[13]
  binding signal (normalized ELISA): 0.05
[14]
  binding signal (normalized ELISA): 1
[15]
  binding signal (normalized ELISA): 1.13
[16]
  binding signal: 1.27

## AAAGCGAGCTCCG (double strand) [7264 yeast half-site gap A]
[25]
  activity (normalized MEL-1): 0.08
[26]
  activity (normalized MEL-1): 0.08
[27]
  activity (normalized MEL-1): 0.18
[28]
  activity (normalized MEL-1): 1.24
[29]
  activity (normalized MEL-1): 0.05

## ACTCTGTTGGAAG (double strand) [7263 yeast half-site gap T]
[1]
  activity: 1.4
[2]
  activity (normalized MEL-1): 1.19
[3]
  activity (normalized MEL-1): 1.06
[4]
  activity (normalized MEL-1): 1.19
[5]
  activity: 0.31
[6]
  activity (normalized MEL-1): 1.59
[7]; normalized yeast MEL-1 score
  activity: 0.06

## AAAGCGGGCTCCG (double strand) [7264 yeast half-site gap G]
[25]
  activity (normalized MEL-1): 0.14
[26]
  activity (normalized MEL-1): 0.42
[27]
  activity (normalized MEL-1): 0.61
[28]
  activity (normalized MEL-1): 1.4
[29]
  activity (normalized MEL-1): 0.09

## TTAGATAAACTGTCCAAAAGGCTATC (double strand) [8196 target gap TC]
[30]
  binding signal (normalized ELISA): 0.01
[31]
  binding signal (normalized ELISA): 0
[32]
  binding signal (normalized ELISA): 0.01
[33]
  binding signal (normalized ELISA): 0
[34]
  binding signal (normalized ELISA): 0.01
[35]
  binding signal (normalized ELISA): 0.03
[36]
  binding signal (normalized ELISA): 0.01
[37]
  binding signal (normalized ELISA): 0.02
[38]
  binding signal (normalized ELISA): 0.02
[39]
  binding signal (normalized ELISA): 0.02
[40]
  binding signal (normalized ELISA): 0.01
[41]
  binding signal (normalized ELISA): 0
[42]
  binding signal (normalized ELISA): 0.01
[43]
  binding signal: 0.01
[44]
  binding signal: 0
[45]
  binding signal: 0.01
[46]
  binding signal: 0.01
